Source: publication PMC10397247

What was measured:
4H968-bN = biological target: T1, 4H968-bN; test: two-hybrid library CCNG1;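 further: natural log of median RNA to DNA barcode read ratio; higher means stronger binding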
T1 chain: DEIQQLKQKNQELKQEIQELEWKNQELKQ

4H855-bN = biological target: T2, 4H855-bN; test: two-hybrid library CCNG1;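 further: natural log of median RNA to DNA barcode read ratio; higher means stronger binding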
T2 chain: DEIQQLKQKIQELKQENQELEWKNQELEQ

4H780-bN = biological target: T3, 4H780-bN; test: two-hybrid library CCNG1;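 further: natural log of median RNA to DNA barcode read ratio; higher means stronger binding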
T3 chain: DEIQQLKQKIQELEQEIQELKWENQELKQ

4H797-bN = biological target: T4, 4H797-bN; test: two-hybrid library CCNG1;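 further: natural log of median RNA to DNA barcode read ratio; higher means stronger binding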
T4 chain: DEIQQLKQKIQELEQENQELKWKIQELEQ

4H953-bN = biological target: T5, 4H953-bN; test: two-hybrid library CCNG1
T5 chain: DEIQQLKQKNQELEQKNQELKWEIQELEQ

4H918-bN = biological target: T6, 4H918-bN; test: two-hybrid library CCNG1
T6 chain: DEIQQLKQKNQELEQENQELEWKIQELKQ

4H741-bA = biological target: T7, 4H741-bA; test: two-hybrid library CCNG1
T7 chain: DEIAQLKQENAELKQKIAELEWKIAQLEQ

4H87-AA = biological target: T8, 4H87-AA; test: two-hybrid library CCmax; conditions: mean of both orientations
T8 chain: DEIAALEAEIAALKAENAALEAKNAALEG

4H_BCR = biological target: T9, 4H_BCR; test: two-hybrid library CCmax; conditions: mean of both orientations
T9 chain: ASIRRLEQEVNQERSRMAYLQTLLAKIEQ

O11-AA = biological target: T10, O11-AA; test: two-hybrid library CCmax
T10 chain: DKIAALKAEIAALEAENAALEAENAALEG

4H_APH = biological target: T11, 4H_APH; test: two-hybrid library CCmax; conditions: mean of both orientations
T11 chain: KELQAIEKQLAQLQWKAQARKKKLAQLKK

O14-AA = biological target: T12, O14-AA; test: two-hybrid library CCmax; conditions: mean of both orientations
T12 chain: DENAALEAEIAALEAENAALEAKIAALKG

4H775-AA = biological target: T13, 4H775-AA; test: two-hybrid library CCmax; conditions: mean of both orientations
T13 chain: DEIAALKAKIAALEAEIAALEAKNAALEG

GCN2_T = test: two-hybrid library CCmax
4H_GCN4 = test: two-hybrid library CCmax; conditions: mean of both orientations
4H_GCN4, sequence (chain, as listed by the source): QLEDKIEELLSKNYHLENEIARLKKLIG

O13-AA = biological target: T14, O13-AA; test: two-hybrid library CCmax; conditions: mean of both orientations
T14 chain: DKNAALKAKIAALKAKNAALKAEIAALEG

4H816-AA = biological target: T15, 4H816-AA; test: two-hybrid library CCmax; conditions: mean of both orientations
T15 chain: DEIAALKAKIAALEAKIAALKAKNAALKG

4H510-AA = biological target: T16, 4H510-AA; test: two-hybrid library CCmax
T16 chain: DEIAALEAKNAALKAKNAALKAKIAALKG

APC7524-AA = biological target: T17, APC7524-AA; test: two-hybrid library CCmax; conditions: mean of both orientations
T17 chain: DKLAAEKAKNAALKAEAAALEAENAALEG

APC9141-AA = biological target: T18, APC9141-AA; test: two-hybrid library CCmax; conditions: mean of both orientations
T18 chain: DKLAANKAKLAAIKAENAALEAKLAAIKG

APC9806-AA = biological target: T19, APC9806-AA; test: two-hybrid library CCmax; conditions: mean of both orientations
T19 chain: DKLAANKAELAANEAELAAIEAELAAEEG

APC9291-AA = biological target: T20, APC9291-AA; test: two-hybrid library CCmax; conditions: mean of both orientations
T20 chain: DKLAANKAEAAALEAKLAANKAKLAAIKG

APC8516-AA = biological target: T21, APC8516-AA; test: two-hybrid library CCmax; conditions: mean of both orientations
T21 chain: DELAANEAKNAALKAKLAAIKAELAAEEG

APC6088-AA = biological target: T22, APC6088-AA; test: two-hybrid library CCmax; conditions: mean of both orientations
T22 chain: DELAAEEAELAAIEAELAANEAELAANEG

APC5531-AA = biological target: T23, APC5531-AA; test: two-hybrid library CCmax; conditions: mean of both orientations
T23 chain: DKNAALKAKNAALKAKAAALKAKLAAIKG

APC8401-AA = biological target: T24, APC8401-AA; test: two-hybrid library CCmax; conditions: mean of both orientations
T24 chain: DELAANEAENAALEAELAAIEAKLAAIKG

APC9182-AA = biological target: T25, APC9182-AA; test: two-hybrid library CCmax; conditions: mean of both orientations
T25 chain: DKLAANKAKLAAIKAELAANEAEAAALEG

APC542-AA = biological target: T26, APC542-AA; test: two-hybrid library CCmax
T26 chain: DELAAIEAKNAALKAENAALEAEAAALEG

4H754-bN = biological target: T27, 4H754-bN; test: two-hybrid library CCNG1
T27 chain: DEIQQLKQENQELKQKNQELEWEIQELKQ

4H967-bN = biological target: T28, 4H967-bN; test: two-hybrid library CCNG1
T28 chain: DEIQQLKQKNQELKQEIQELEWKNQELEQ

4H883-bN = biological target: T29, 4H883-bN; test: two-hybrid library CCNG1
T29 chain: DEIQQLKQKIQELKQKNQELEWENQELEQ

4H908-bN = biological target: T30, 4H908-bN; test: two-hybrid library CCNG1
T30 chain: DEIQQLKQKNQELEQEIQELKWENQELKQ

4H780-bA = biological target: T31, 4H780-bA; test: two-hybrid library CCNG1
T31 chain: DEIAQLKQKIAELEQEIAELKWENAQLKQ

4H797-bA = biological target: T32, 4H797-bA; test: two-hybrid library CCNG1
T32 chain: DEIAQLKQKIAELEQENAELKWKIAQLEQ

4H918-bA = biological target: T33, 4H918-bA; test: two-hybrid library CCNG1
T33 chain: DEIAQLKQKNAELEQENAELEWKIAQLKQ

4H968-bA = biological target: T34, 4H968-bA; test: two-hybrid library CCNG1
T34 chain: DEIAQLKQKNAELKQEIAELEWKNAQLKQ

4H953-bA = biological target: T35, 4H953-bA; test: two-hybrid library CCNG1
T35 chain: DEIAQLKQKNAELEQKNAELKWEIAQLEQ

4H855-bA = biological target: T36, 4H855-bA; test: two-hybrid library CCNG1
T36 chain: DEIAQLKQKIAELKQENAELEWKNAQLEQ

B1: 4H780-bN (peptide)
chain: DEIQQLKQKIQELEQEIQELKWENQELKQ
4H968-bN
  interaction score: -2.05
4H855-bN
  interaction score: -0.732
4H780-bN
  interaction score: 1.99
4H797-bN
  interaction score: -0.0265
4H953-bN
  interaction score: -0.748
4H918-bN
  interaction score: -0.346

B2: 4H741-bA (peptide)
chain: DEIAQLKQENAELKQKIAELEWKIAQLEQ
4H741-bA
  interaction score: 0.341

B3: 4H510-AA (peptide)
chain: DEIAALEAKNAALKAKNAALKAKIAALKG
4H87-AA
  interaction score: -1.29
4H_BCR
  interaction score: -2.2
O11-AA
  interaction score: 1.49
4H_APH
  interaction score: -2.26
O14-AA
  interaction score: 1.32
4H775-AA
  interaction score: -1.67
GCN2_T
  interaction score: -1.77
4H_GCN4
  interaction score: -2.32
O13-AA
  interaction score: -1.66
4H816-AA
  interaction score: -2
4H510-AA
  interaction score: -1.44

B4: APC542-AA (peptide)
chain: DELAAIEAKNAALKAENAALEAEAAALEG
APC7524-AA
  interaction score: -2
APC9141-AA
  interaction score: -1.64
APC9806-AA
  interaction score: -1.91
APC9291-AA
  interaction score: -1.54
APC8516-AA
  interaction score: -1.5
APC6088-AA
  interaction score: -2.13
APC5531-AA
  interaction score: -1.88
APC8401-AA
  interaction score: -1.89
APC9182-AA
  interaction score: -1.84
APC542-AA
  interaction score: -1.57

B5: 4H754-bN (peptide)
chain: DEIQQLKQENQELKQKNQELEWEIQELKQ
4H754-bN
  interaction score: 0.447
4H967-bN
  interaction score: -0.968
4H883-bN
  interaction score: -1.38
4H908-bN
  interaction score: -1.55
4H968-bN
  interaction score: -0.3
4H855-bN
  interaction score: -0.508
4H780-bN
  interaction score: 0.164
4H797-bN
  interaction score: -1.55
4H953-bN
  interaction score: -1.42
4H918-bN
  interaction score: -1.04

B6: 4H780-bA (peptide)
chain: DEIAQLKQKIAELEQEIAELKWENAQLKQ
4H780-bA
  interaction score: 1.22
4H797-bA
  interaction score: -0.749
4H918-bA
  interaction score: -0.303
4H968-bA
  interaction score: -1.3
4H953-bA
  interaction score: -0.243
4H855-bA
  interaction score: -0.574
